# Assay results: the supplement of paper PMC12764529
# ± gives the half width of the 95% confidence interval.
# Experiments:
# [1] = folding stability dG unfold from chymotrypsin proteolysis; higher = more stable
# Procedure, shortened: (§1)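 How resistant each design was to proteolysis was captured as K50, inferred by Bayesian fitting of sequencing counts. Unfolding free energy was then derived relative to a sequence-predicted unfolded-state K50 and a shared folded-state K50, per protease or combined. Digestion used trypsin and chymotrypsin at 11 threefold-diluted concentrations plus a no-protease condition, on mini-proteins under 80 residues without cysteine in a PA-tagged cDNA display construct. Designs were kept only when AlphaFold2 dimer inter-PAE was above 15.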
# [2] = folding stability dG unfold from trypsin proteolysis; higher = more stable
# Procedure, shortened: as §1
# [3] = folding stability dG unfold (combined trypsin and chymotrypsin); higher = more stable
# Procedure, shortened: as §1
Sequence,folding stability dG unfold [1] [kcal/mol],folding stability dG unfold [2] [kcal/mol],folding stability dG unfold [3] [kcal/mol]
SAGATFKPGQTITVTVTVTVTVTNADGSTTTVTATVTVTLTVEPAPPLTFKTAEEAEAARKAGLSPEELSAG [r5_624_TrROS_Hall],1.9 ± 0.076,1.35 ± 0.07,1.84 ± 0.23
SAGATLLEERELPDGSRVEVYREPDKLIVRVFSPDREVETRVFPLPPEPPLPVVPVVVDPARGRFVRLSAGG [r19_254_JUSTAS],-0.00636 ± 0.11,-0.621 ± 0.19,-0.106 ± 0.077
SAGDDWIPIEEIARRIARKHGYPVKSVEVPIYKTPDYYYVTVHIKYENPDDGKKQEFEDQFWIPKDEIKSAG [r5_421_TrROS],0.97 ± 0.054,0.968 ± 0.065,0.886 ± 0.17
SAGDIGRVEARPVPLPGDRPGRVVVVESSVPNLRVLLFRGPEDRWVALVETDGRVEELPLEEALRLLASSAG [r5_157_TrMRF],2.717 ± 0.021,1.69 ± 0.043,2.39 ± 0.076
SAGDLLKNLPPEIVEVEEVKTLPDGTKYFLVKVKKDGKERVFVIELDKNGKIVKIEEMSKEEAEKLLKKSAG [r5_73_TrROS_Hall],3.74 ± 0.097,1.84 ± 0.088,3.32 ± 0.17
SAGDLSPSDTVDLEVTPVKVGDKWVHEVRVTVTLPDGSSLRSTLRLPPELGPPRRGRLSVPEFVALVAASAG [r5_831_JUSTAS],2.39 ± 0.044,1.85 ± 0.024,2.14 ± 0.11
SAGDPDRPLGPVEITVDPEENTLTITFGDLTLTLPLPEGVEATAEVFPDHVVLTVRYPDGTIRTFVFPLSAG [r5_21_TrMRF],5.09 ± 0.15,4.14 ± 0.13,5.06 ± 0.16
SAGDPRLRVLVVDLEVEGLEELREFVEEHPDVEVLPRPDGRVLLRRVLLVEVEEPEGEEDPDGPTLHPDSAG [r5_129_TrMRF],1.44 ± 0.18,0.966 ± 0.11,1.26 ± 0.13
SAGDWELVELRPFRFPNGLEALVAVYRNPADERLVVLTVVREPEGRLVAVALVEFDGDKLVSESVFSPGSAG [r14_828_TrMRF],3.755 ± 0.025,2.62 ± 0.079,3.4 ± 0.12
SAGDWVPIEFTIFFPDPNMTIEEIADSALMNLGLPPEDVTVKIKNIHEQPDPDGRPYYHIEVKIYIPDNSAG [r5_528_TrROS],3.17 ± 0.13,1.7 ± 0.13,2.75 ± 0.23
SAGDWYVVIEIKHPNGRTITFVLRFDSPDELKDEILDNMRDEYGGPPEDMPITDIRVEVFDPKTGKPIWSAG [r5_482_TrROS],3.36 ± 0.09,2.65 ± 0.18,3.15 ± 0.14
SAGEDGWHVVKIWIMIPGPAQLDEFLEEHPNVEIWPNPNGYFMVRITIRVPVPPPPPERDPDNGEPEPDSAG [r5_129_TrROS],4.66 ± 0.064,3.73 ± 0.11,4.29 ± 0.1
SAGEEKVEELARELAEELGVTITEVTVTEEGDTVTITVVNEETGERITITVTRNEDGEITVTITVEKLPSAG [r5_888_TrROS_Hall],2.53 ± 0.17,2.61 ± 0.28,2.62 ± 0.11
SAGEIEEILIENPETNEVYRITKVETTVELDEDGNLHTTTKVEIEKVEPPPPPEPEVEVEVKPGEKVELSAG [r5_212_TrROS_Hall],-0.00362 ± 0.42,0.225 ± 0.068,< -1
SAGEIKIKVEEVDPEKPYVRVTIEIKLEPGQSIEEALKKLLKPGVEEAKIVKVEEENGYLKIEILVRRKSAG [r5_227_TrROS_Hall],4.54 ± 0.28,3.22 ± 0.14,4.01 ± 0.27
SAGEIVIPIPFDWEQAPRMAKHLLRRFQQEGKKIRIWVPDAGAVEAIKDALPPNFPIEVEPLKPGEPIPSAG [r5_911_TrROS],1.27 ± 0.27,0.299 ± 0.34,0.909 ± 0.14
SAGEKIKEKIKEILKELFPDAEVEIKTLPDGTIIIKLKKDKKIIVIKKTKDGKIKIVKVMTAEELKKLSSAG [r5_852_TrROS_Hall],1.01 ± 0.26,2.15 ± 0.079,1.51 ± 0.29
SAGELEVTVTVRTETRTETREEEERRRREAAPPVRLRVFFPDTGLAVELEFDANGNIVSVKVTELPEDLSAG [r5_342_TrROS_Hall],2.67 ± 0.051,1.87 ± 0.11,2.39 ± 0.1
SAGEMVVLRIRVKVPVTEVKFDKETGELTVEKKTVTREITLTVPADSPEARELAEKLRELGFEVEVVEASAG [r5_468_TrROS_Hall],3.53 ± 0.042,3.35 ± 0.14,3.43 ± 0.062
SAGEPIRIKIMIMNPDGKLRPIVEIPIPPDDIKEIEIKDDSIEIELPGDGKTLMFRINNYPIMIQIEDSAGG [r19_408_TrROS],3.2 ± 0.036,2.06 ± 0.029,2.77 ± 0.11
SAGEPLVPLSEYELDVPGGQKVKIEIYALPDGTVVVRITDSEGNESEITIPRAELEKLSPEEIVARLSSAGG [r19_47_JUSTAS],3.57 ± 0.093,3.71 ± 0.14,3.67 ± 0.098

Sequence,folding stability dG unfold [1] [kcal/mol],folding stability dG unfold [2] [kcal/mol],folding stability dG unfold [3] [kcal/mol]
SAGEREELLERAKELARKLAEELGVEVEVTVTVEERDDSVTITVTVTVRNEDGSTHTFTFTFTLKKEDLSAG [r5_609_TrROS_Hall],5.55 ± 0.2,3.83 ± 0.14,5.43 ± 0.13
SAGEVAPEEIRKIAEEIAKKLGLKNVKVEVSRDEETGEITVKIEVDIPESKKEKKEELEKAIKEKLGLKSAG [r5_9_JUSTAS],2.96 ± 0.094,1.97 ± 0.084,2.7 ± 0.17
SAGFDWRTVKFPISPELRDKLKEDGFEIVGTSPNYITITVPVVPPPSPEELEEAEKEGMTWEEARDKASAGG [r19_115_TrROS],-0.652 ± 0.82,-0.0911 ± 0.091,-0.0214 ± 0.26
SAGFEFPPGQEIEFKVQYTSPMPNPDGGWGPVTETYEITIEIVPVPPIPFKDPAQAEELRQKGLPPDDLSAG [r5_624_TrROS],1.44 ± 0.041,0.546 ± 0.06,1.23 ± 0.14
SAGFKIVDVEPTDGRLEITIPIDKPGDALMFMVPFPNAKITPDPNGKITITIPPGGWYMIMIRLKKDASAGG [r19_227_TrROS],2.67 ± 0.091,2.33 ± 0.037,2.6 ± 0.14
SAGFVPGKLKAVDPNGNEIDVIEIEELPNGKVIAKGKNKTNGFPYIATYDPVSGKVYIILPNGKVIEIGSAG [r5_809_TrMRF],1.82 ± 0.12,0.867 ± 0.074,1.55 ± 0.13
SAGGAEEKIREIAEKLGVKEVLSADEAEKLPPEYPKRIAVVPRPDGSVLVIVRLENGEVLVIEFPVDSAGGS [r16_686_TrMRF],2.49 ± 0.035,1.45 ± 0.044,2.15 ± 0.086
SAGGAFAVVDAGDKVITITVYNPDGELVAPAEIPVLDPETGESDALNIPLEELEKLAGVPIELEPAGSAGGS [r16_778_TrMRF],1 ± 0.025,0.977 ± 0.059,1.03 ± 0.1
SAGGAHEMEWKHEYELPPYRLKVELEWYYDPDGNPQPSIETIEIRPVPPPTIDAEDLPPEQAKENGIASAGG [r13_964_TrROS],1.23 ± 0.087,1.13 ± 0.11,1.08 ± 0.38
SAGGAIELPDLGEEEAIETLKKLAEEGIKNPVGVIRTPTKPLVITYDPETNTVTITLPDGTILTLVVSAGGS [r16_481_JUSTAS],1.83 ± 0.028,0.755 ± 0.091,1.52 ± 0.11
SAGGAKELFEAIPGAEAEYDPETGTLRVRFEFPDYTVLVEIPTDKETGEVLGVRVYVIDKDGVPHEIDLSAG [r5_367_TrMRF],4.81 ± 0.15,3.26 ± 0.24,4.52 ± 0.23
SAGGALENAPITVNVTITITLKDEKGNTPVITIPVTATVTSQAEADALVNATAAALEAALGATVTVASAGGS [r8_149_JUSTAS],2.04 ± 0.14,1.65 ± 0.12,1.95 ± 0.096
SAGGAMSSPVGTVTLTSPAGETVTITVYPGKTEVTTRPPDGSVTVTSLADKSVEEVIAELKAEGYEVLSSAG [r5_613_JUSTAS],2.99 ± 0.03,4 ± 0.18,3.25 ± 0.039
SAGGAPIEAAPDEEITLTFTLTVRFRGPDGAEGTATFRLTVPVKVEPVPPVPEPRVFRLPDGSEVTLGSAGG [r13_401_TrMRF],1.66 ± 0.12,1.48 ± 0.057,1.64 ± 0.12
SAGGAPLPLPPDVPVTLTFTEVTFSLNESGETGYTVSTTTVPVPVEPVPPVPLPVLVVWPDGSAVALLSAGG [r13_401_JUSTAS],2.23 ± 0.051,1.3 ± 0.067,1.89 ± 0.059
SAGGAPLSSSEEVEALLKEGGAEFVSKTSVTITEPGVPVTVNVYTIRVKDPSSDKWTLVEVPSSLLSSAGGS [r16_271_JUSTAS],0.429 ± 0.2,0.192 ± 0.12,0.409 ± 0.15
SAGGAPVGKFKFELNFPELGENVRSVEATVDPVKGTVTVNFELPGSGKPLTLTVPVKLVSPDNPELFSAGGS [r8_193_TrMRF],0.759 ± 0.12,0.37 ± 0.059,0.613 ± 0.082
SAGGASVDRELTDPVTGDKIEVTITRLPDGSWLIEVTVTDAEGKTTKYPKTFPPGSYTPEDTIDFTKDSAGG [r13_959_JUSTAS],2.14 ± 0.12,1.92 ± 0.2,2.1 ± 0.16
SAGGATAVIADFPLPEGTLRVAVVKKDDKPYVFVFPSGISAEELKKILEEKLGVDIKKVEVKTVSTADESAG [r5_181_TrMRF],2.04 ± 0.022,1.11 ± 0.053,1.7 ± 0.093
SAGGATITLEPGTFTIEFPENELVIPVPVPEERPDVSPEEAAREIVEELREKYGLPPPEDLTVELAPSAGGS [r8_402_JUSTAS],0.184 ± 0.27,0.299 ± 0.13,0.273 ± 0.22
SAGGATVTVTEYPLPTGTLYRVTVTVGSKTTTFTVPPGVSLEEIKEIVEKEVGVDLTTVTTTTVSTAAASAG [r5_181_JUSTAS],3.83 ± 0.062,3.06 ± 0.14,3.56 ± 0.14
